Measurements published in US20220089736A1.

B1: VB28B9 (protein, part only; not given: scFvs, linkers, constant regions, not shown: another chain or arm of the molecule; a dimerising Fc or GST; small tags and cut ends)
VH: QVQLQQWGAGLLKPSETLSLTCAVYGGSFSGYYWNWIRQPPGKGLQWIGEINHSGTTNYNPSLKSRVTISVDTSKNQFSLKLSSLTAADTAVYYCARGEAVALYWGQGTLVTVSS
VL: EIVMTQSPATLSVSPGERATLSCRASQSVNSNLAWYQQKPGQAPRLLIYGASARATGIPARFSGSGSGTEFTLTISSLQSEDFAVYYCQQYYNWPLTFGGGTKVEIK
B2: VB28B7 (protein, part only; not given: scFvs, linkers, constant regions, not shown: another chain or arm of the molecule; a dimerising Fc or GST; small tags and cut ends)
VH: QVQLQQPGSELVRPGASVKLSCKASGYTFTSYWMHWVKQRHGQGLEWIGNIYPGSGRTNYDEKFKSKGTLTVDTSSRTAYMHLSSLTSEDSAVYYCTREHYGSNSHPMDYWGQGTSVTVSS
VL: DIQMTQSPASLSASVGETVTITCGASENIYGSLNWYQRKQGKSPQLLIYGATNLADGMSSRFSGSGSGRQFSLKISSLHPDDVATYYCQNLLSTPYTFGGGTKLELK

Key:
[1] = biological target: CD28 (Cluster of Differentiation 28) (human) (UniProt P10747); test: flow cytometry, binding to human pan T cells; antibody without Vβ17 arm
[2] = biological target: CD28 (Cluster of Differentiation 28) (human) (UniProt P10747); test: flow cytometry, binding to H929 cells (carry CD28 and BCMA; binding largely dependent upon CD28 arm)

Binder | EC50 [1] [µg/mL] | EC50 [2] [µg/mL]
B1 | 0.15 | 0.14
B2 | 0.06 | 0.1
